Source: patent publication US5480971A, “Peralkylated oligopeptide mixtures” (Houghten Pharmaceuticals, Inc., priority 1994, dated 1996)
Square brackets hold non-standard residues; d marks the D form. Ends that are not written are not given here. Peptide text beside a SMILES is read from it. * marks the point of attachment. NMeF = CN[C@@H](Cc1ccccc1)C(=O)O; X3 = C[C@@H](C(=O)*)[N+](C)(C)C; NMeL = CN[C@@H](CC(C)C)C(=O)O; Sar = CNCC(=O)O

Legend:
Format in all cases: in vitro ADME
[1] = Enzymatic susceptibility to chymotrypsin (RP-HPLC, mass spectral analysis); details: chymotrypsin; overnight enzyme exposure (16 hours), room temperature, pH 7.8; read-out: cleavage by chymotrypsin
Description: (§1) The stability of N-permethylated compounds to proteolysis was examined for two permethylated sequences, AlaGlyGlyPheLeu-NH2 (SEQ ID NO:37) and ArgGlyGlyPheLeu-NH2 (SEQ ID NO:38) with their non-permethylated equivalents used as controls. Treatment of these found compounds by trypsin and chymotrypsin was monitored by RP-HPLC and mass spectral analysis. Rapid cleavage of AGGFL-NH2 (SEQ ID NO:37) by chymotrypsin and RGGFL-NH2 (SEQ ID N0:38) by trypsin was observed (<1 hour), whereas less than 1 percent cleavage of the equivalent permethylated peptides was seen following overnight enzyme exposure.
(§2) The assays were performed in 1 ml 0.1M NH4 HCO3, pH 7.8, at room temperature for 16 hours at a peptide concentration of 1.0 mg/ml. Enzyme to peptide concentration was 1:50.

chymotrypsin = assay: as above; details: peptide 1.0 mg/ml, enzyme to peptide 1:50, 0.1M NH4HCO3 pH 7.8, room temperature
Description: as §1, §2

trypsin = assay: Enzymatic susceptibility to trypsin (RP-HPLC, mass spectral analysis); details: peptide 1.0 mg/ml, enzyme to peptide 1:50, 0.1M NH4HCO3 pH 7.8, room temperature
Description: as §1, §2

## CNC(=O)[C@H](CC(C)C)N(C)C(=O)[C@H](Cc1ccccc1)N(C)C(=O)CN(C)C(=O)CN(C)C(=O)[C@H](C)[N+](C)(C)C [PerA-AGGFL] (X3-[Sar][Sar][NMeF][NMeL]-NHMe)
[1]
  metabolised at 16 h, 1 mg/ml: < 1%

## AlaGlyGlyPheLeu-NH2 (AGGFL-NH2) [non-permethylated equivalent used as control, reference compound]
chymotrypsin
  time in which cleavage by chymotrypsin was observed: < 1 h

## ArgGlyGlyPheLeu-NH2 (RGGFL-NH2) [non-permethylated equivalent used as control]
trypsin
  time in which cleavage by trypsin was observed: < 1 h
